Results as given in PMC12307502.

Target: AβO (amyloid-beta oligomer) (UniProt P05067)
Assay: fluorescence quenching titration (Cy5/BHQ3), LangmuirEXT1 fit
Conditions: 25 °C; buffer not stated for the aptamer-only binding assays (AβO detection assay: 50 mM Tris-HCl pH 8, 10 mM MgCl2)

Sequence of UniProt P05067 (P05067 whole entry): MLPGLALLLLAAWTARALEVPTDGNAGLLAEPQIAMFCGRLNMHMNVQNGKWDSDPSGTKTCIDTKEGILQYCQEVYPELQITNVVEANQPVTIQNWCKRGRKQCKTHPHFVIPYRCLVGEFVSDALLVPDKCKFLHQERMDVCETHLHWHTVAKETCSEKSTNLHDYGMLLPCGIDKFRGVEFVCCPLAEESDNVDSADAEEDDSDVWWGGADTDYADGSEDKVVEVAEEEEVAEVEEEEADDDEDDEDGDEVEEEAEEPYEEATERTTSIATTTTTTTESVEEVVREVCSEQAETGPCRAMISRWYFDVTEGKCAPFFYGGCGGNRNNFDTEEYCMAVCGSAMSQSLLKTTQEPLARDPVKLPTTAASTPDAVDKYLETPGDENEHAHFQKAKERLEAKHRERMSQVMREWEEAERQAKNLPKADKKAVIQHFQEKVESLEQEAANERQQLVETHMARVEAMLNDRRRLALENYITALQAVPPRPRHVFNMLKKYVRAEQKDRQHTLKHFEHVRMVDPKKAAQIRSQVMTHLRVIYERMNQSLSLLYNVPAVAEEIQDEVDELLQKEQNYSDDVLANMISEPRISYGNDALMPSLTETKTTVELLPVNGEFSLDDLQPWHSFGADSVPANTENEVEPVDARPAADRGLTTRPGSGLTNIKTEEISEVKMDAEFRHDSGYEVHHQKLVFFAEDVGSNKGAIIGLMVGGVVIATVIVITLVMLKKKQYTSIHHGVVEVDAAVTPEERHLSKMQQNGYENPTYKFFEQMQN

For “TGACCAACGCCTGTGGTGTTGGGGCGGGTGCGGTTGGTCA [A4]”, the Kd was 7.54 nM.
